Patent publication US20250326862A1, “Antibody or Fragment Thereof Binding Specifically to Mertk, and Anti-Tumor Agent” (Chiome Bioscience Inc., priority 2021, published 2025)
Entries after “also recorded” stand apart in the source; their conditions may differ.

How the values were obtained:
[1] = molecular target: T1, human MerTK (Homo sapiens, UniProt Q12866); test: Test 9: antigen binding activity of humanized antibodies by ELISA; settings: compared with the original human chimeric antibody (m20A77_hIgG1LALA or 24A1_hIgG1LALA, respectively); FIG. 21
T1 sequence (Q12866 21-999): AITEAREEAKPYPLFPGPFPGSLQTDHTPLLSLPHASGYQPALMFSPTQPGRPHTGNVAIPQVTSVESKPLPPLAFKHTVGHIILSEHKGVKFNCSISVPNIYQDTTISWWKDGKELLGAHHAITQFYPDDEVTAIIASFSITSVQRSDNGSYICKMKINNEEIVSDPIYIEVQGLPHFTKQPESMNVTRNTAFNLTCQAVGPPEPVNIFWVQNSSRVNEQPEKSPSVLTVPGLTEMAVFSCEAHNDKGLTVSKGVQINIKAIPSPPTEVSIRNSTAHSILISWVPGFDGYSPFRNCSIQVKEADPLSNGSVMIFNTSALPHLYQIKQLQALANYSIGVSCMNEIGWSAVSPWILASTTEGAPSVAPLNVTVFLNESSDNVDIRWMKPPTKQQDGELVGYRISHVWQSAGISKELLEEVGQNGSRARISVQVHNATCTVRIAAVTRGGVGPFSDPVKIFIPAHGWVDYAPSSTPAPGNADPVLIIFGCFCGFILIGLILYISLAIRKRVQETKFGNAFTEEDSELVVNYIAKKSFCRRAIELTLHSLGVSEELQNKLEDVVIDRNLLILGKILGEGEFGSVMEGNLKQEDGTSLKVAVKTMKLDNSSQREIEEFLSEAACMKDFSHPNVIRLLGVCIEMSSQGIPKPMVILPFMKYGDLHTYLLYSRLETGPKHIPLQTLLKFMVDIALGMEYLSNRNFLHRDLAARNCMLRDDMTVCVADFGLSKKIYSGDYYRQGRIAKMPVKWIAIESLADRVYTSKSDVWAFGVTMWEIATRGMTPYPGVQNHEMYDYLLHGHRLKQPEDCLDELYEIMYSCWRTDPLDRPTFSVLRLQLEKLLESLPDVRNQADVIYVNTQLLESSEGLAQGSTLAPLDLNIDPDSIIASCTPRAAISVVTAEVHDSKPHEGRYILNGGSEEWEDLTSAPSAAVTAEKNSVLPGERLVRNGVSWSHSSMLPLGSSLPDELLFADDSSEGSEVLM
Experimental: (§1) The ELISA was performed according to the procedures indicated below. First, the respective antigens were added to an ELISA plate (Nunc) at a concentration of 5 μg/ml and immobilized overnight at room temperature. After removing the immobilization solution, 1% BSA/PBS was added for blocking reaction and left to stand at room temperature for 1 hour. After the blocking, the plate was washed with 0.05% Tween 20/PBS and an antibody solution was added for primary reaction at room temperature for 1 hour. After washing, an HRP-labelled antibody (GE Healthcare) was added for secondary reaction for 1 hour. After washing, a chromogenic substrate solution of TMB (Dako) was added for chromogenic reaction for 10 minutes, 1 N sulfuric acid was added to terminate the reaction and the absorbance was measured at 450 nm.
The prepared antibodies were checked for antigen binding activity by ELISA.

[2] = molecular target: T1, human MerTK; test: MerTK phosphorylation inhibition test in hMerTK-EL4 cells stimulated with human Gas6; assay type: cell-based; design: expressed in transfected cells; host or cells: mouse lymphoma cell line EL4 (hMerTK-EL4); settings: hMerTK-EL4, antibody 1 hour, then 200 nM human Gas6 for 10 minutes; phospho-Mer ELISA; FIG. 1
Experimental: On the basis of the procedures indicated below, the clones were evaluated for MerTK phosphorylation inhibitory activity. Higher activity means higher binding ability to MerTK.
The cells (hMerTK-EL4) stably expressing human MerTK were cultured in a “DMEM high glucose medium” (Thermo Fisher Scientific Inc.) containing 10% FBS. After the cultivation, the cells were washed in PBS, suspended in a serum-free medium, plated in a 96-well plate at 1×10^6 cells/well and incubated at 37° C. for 3 hours. After the incubation, the respective clones were added, the hMerTK-EL4 was allowed to react for 1 hour, stimulated with 200 nM human Gas6 (R&D Systems) for 10 minutes and centrifuged and collected. The collected hMerTK-EL4 was lysed in a cell lysis solution, and the level of the phosphorylated MerTK protein in the lysate was determined using “Human Phospho-Mer DuoSet IC ELISA” (R&D Systems). The cell lysis solution used contained 1% “IGEPAL CA-630” (SIGMA) and 1×concentration of “Halt Protease and Phosphatase Inhibitor Single-Use Inhibitor Cocktail” (Thermo Fisher Scientific Inc.) added to MilliQ water.

[3] = molecular target: T2, binding of MerTK with Gas6 (Homo sapiens, UniProt Q12866); test: Test 6: ligand binding inhibition ELISA, MerTK with Gas6; settings: human MerTK 5 μg/ml immobilized; biotinylated Gas6 10 nM; FIGS. 13 and 15
T2 construct: purchased R&D Systems
T2 sequence (Q12866 26-499 limits assumed): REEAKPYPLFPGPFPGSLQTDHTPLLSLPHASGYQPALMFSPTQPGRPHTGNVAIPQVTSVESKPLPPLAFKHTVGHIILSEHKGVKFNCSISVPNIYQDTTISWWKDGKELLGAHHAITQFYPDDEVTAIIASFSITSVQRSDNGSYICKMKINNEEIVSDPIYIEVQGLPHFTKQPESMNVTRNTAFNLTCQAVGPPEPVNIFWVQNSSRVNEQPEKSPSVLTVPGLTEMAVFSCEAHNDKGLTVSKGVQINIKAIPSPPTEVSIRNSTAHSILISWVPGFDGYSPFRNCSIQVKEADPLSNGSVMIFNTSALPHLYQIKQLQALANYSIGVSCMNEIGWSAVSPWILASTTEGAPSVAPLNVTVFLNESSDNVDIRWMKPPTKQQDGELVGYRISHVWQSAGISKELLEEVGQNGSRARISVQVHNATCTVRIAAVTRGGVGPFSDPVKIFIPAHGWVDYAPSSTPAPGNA
Experimental: (§2) “20A77” and “24A1” were evaluated for the ability to inhibit binding of MerTK with various ligands. The MerTK ligands used were human Gas6 (R&D Systems) and human TULP1 (abcam plc.) which were respectively biotinylated using “Biotin Labeling Kit-NH” (Dojindo Laboratories Co., Ltd.). […] TULP1 is a ligand correlated with ocular toxicity, and an antibody having an activity to inhibit binding of MerTK with TULP1 may have ocular toxicity. Thus, an antibody having high inhibitory activity of binding to Gas6 and low inhibitory activity of binding to TULP1 may be an efficacious anti-tumor agent having low ocular toxicity.
as §1, with “The ligand binding inhibition test” for “The ELISA”, “was carried out as” for “was performed according to the procedures”, “First, human MerTK (R&D Systems) was” for “First, the respective antigens were”, “hour. […]” for “hour. After washing, an HRP-labelled antibody (GE Healthcare) was added for secondary reaction for 1 hour.”, “for 20” for “for 10”

[4] = molecular target: T3, binding of MerTK with TULP1 (Homo sapiens, UniProt Q12866); test: Test 6: ligand binding inhibition ELISA, MerTK with TULP1; settings: human MerTK 5 μg/ml immobilized; biotinylated TULP1 40 nM; FIGS. 14 and 16
T3 construct: purchased R&D Systems
T3 sequence (Q12866 26-499 limits assumed): T2 sequence (Q12866 26-499 limits assumed)
Experimental: as §2
as §1, with “The ligand binding inhibition test” for “The ELISA”, “was carried out as” for “was performed according to the procedures”, “First, human MerTK (R&D Systems) was” for “First, the respective antigens were”, “hour. […]” for “hour. After washing, an HRP-labelled antibody (GE Healthcare) was added for secondary reaction for 1 hour.”, “for 20” for “for 10”

[5] = Test 8: toxic dose by in vivo ocular toxicity test, TB staining; design: species or system Balb/c mice; settings: 3 or 10 mg/kg intravenous twice a week, eyes removed day 30
Experimental: The ocular toxicity test was carried out using Balb/c mice. The mice intravenously received a solvent or “m20A77_mIgG1” at a dose of 3 or 10 mg/kg at a frequency of twice a week. At day 30 after the first administration, eyes were removed, fixed with a Karnovsky's fixative and then subjected to embedding in a resin, preparation of sections and TB staining carried out by Applied Medical Research Laboratory.

B1: hz20A77_hIgG1LALA: humanized antibody derived from m20A77 with human IgG1 constant region having LALA sequence (antibody, V domains shown)
VH: QVQLVQSGAEVKKPGSSVKVSCKASGNTFTSYWMHWVRQAPGQGLEWIGNINPSSGGTNYNEKFKSRVTITVDKSTSTAYMELSSLRSEDTAVYYCARLNYYGFDGFAFWGQGTLVTVSS
VL: DIQMTQSPSSLSASVGDRVTITCKASQDINSYLSWFQQKPGKAPKTLIYRANRLVSGVPSRFSGSGSGTDYTLTISSLQPEDFATYYCLQYDEFPFTFGGGTKVEIK
- antigen binding activity (reactivity) in ELISA [1]: reactivity similar to or higher than original human chimeric antibodies

B2: hz24A1_hIgG1LALA: humanized antibody derived from 24A1 with human IgG1 constant region having LALA sequence (antibody, V domains shown)
VH: EVQLVESGGGLVQPGGSLRLSCAASGFTFNVYDMHWVRQAPGKGLEWVARIRSKSSNYATNYADSVKDRFTISRDDAKNSLYLQMNSLRAEDTAVYYCVRDGSHYYYALDYWGQGTTVTVSS
VL: DIQMTQSPSSLSASVGDRVTITCRASQDINNYLNWYQQKPGKAPKLLIYYSSRLHSGVPSRFSGSGSGTDYTLTISSLQPEDFATYYCQQGKMFPWTFGGGTKVEIK
- antigen binding activity (reactivity) in ELISA [1]: reactivity similar to or higher than original human chimeric antibodies

B3: 24A1: anti-MerTK mouse monoclonal antibody clone; VH SEQ ID NO: 9, VL SEQ ID NO: 13 (antibody, V domains shown)
VH: EVQLVESGGGLVQPKGSLKLSCAASGFTFNVYDMHWVRQAPGEGLEWVARIRSKSSNYATNYADSVKDRFTISRDDSQSMLYLQMNNLQTEDTAIYYCVRDGSHYYYALDYWGQGTSVTVSS
VL: DIQMTQTTSSLSASLGDRVTISCRASQDINNYLNWYQQKLDGTVKLLIYYSSRLHSGVPSRFSGSGSGTDYSLTISNLEQEDIATYFCQQGKMFPWTFGGGTKLEIK
- MerTK phosphorylation inhibitory activity [2]: inhibited binding of Gas6 with MerTK and MerTK phosphorylation in a concentration dependent manner
- inhibition of binding of Gas6 with MerTK [3]: inhibited binding of Gas6 with MerTK; also recorded: strongly inhibited binding of Gas6 with MerTK
- inhibition of binding of TULP1 with MerTK [4]: did not inhibit binding of TULP1 with MerTK

B4: m20A77_mIgG1: mouse IgG1 antibody of m20A77 (antibody, V domains shown)
VH: QVQLQQPGTELVKPGASVKLSCRASGNTFTSYWMHWVKQRPGQGLEWIGNINPSSGGTNYNEKFKSKATLTVDKSSSTAYMQLSSLTSEDSAVYYCARLNYYGFDGFAFWGQGTLVTVSA
VL: DIKMTQSPSSMYASLGERVTITCKASQDINSYLSWFQQKPGKSPKTLIYRANRLVSGVPSRFSGSGSGQDYSLTISSLEYEDMGIYYCLQYDEFPFTFGSGTKLEIK
- TB-positive granules (retinal pigment epithelium) ([5]; FIG. 19): no increase in TB-positive granules was observed
- abnormal shrinkage of the outer nuclear layer ([5]; FIG. 20): no abnormal shrinkage of the outer nuclear layer was observed
